Measurements reported in the supplement of paper PMC9170038.

Legend:
MS2 coat protein = test: apparent KD of MS2 coat protein; higher = weaker reporter binding; details: Eterna round: R107
Protocol: (§1)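 RNA-MaP round R107: designed RNA switches with theophylline, tryptophan, arginine or FMN aptamers are transcribed on-chip within common flanks. They are titrated with SNAP-549-labelled MS2 coat protein in RNA-MaP buffer (100 mM Tris pH 7.5, 80 mM KCl, 4 mM MgCl2), without ligand or with the indicated ligand. Median apparent KD per design.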

[1] = test system: K4 kissing-loop RNA reporter; test: apparent KD of K4 kissing-loop reporter; higher = weaker reporter binding; details: Eterna round: R107;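 also: bound reporter read as fluorescence of individual clusters on recovered sequencing chips by microscopy, with normalized cluster intensities fitted with a binding model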
Protocol: as §1, with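 “a labelled K4 kissing-loop RNA reporter” for “SNAP-549-labelled MS2 coat protein”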

[2] = input ligand: theophylline 20 uM
[3] = input ligand: theophylline 2 mM
[4] = input ligand: tryptophan 2.4 mM

Sequence | apparent KD of MS2 coat protein (MS2 coat protein; input ligand: arginine 13.2 mM) [nM] | apparent KD of MS2 coat protein (MS2 coat protein; input ligand: none) [nM] | apparent KD of MS2 coat protein (MS2 coat protein; [2]) [nM] | apparent KD of MS2 coat protein (MS2 coat protein; [3]) [nM] | apparent KD of MS2 coat protein (MS2 coat protein; [4]) [nM] | apparent KD of K4 kissing-loop reporter ([1]; input ligand: FMN 200 uM) [nM] | apparent KD of K4 kissing-loop reporter ([1]; input ligand: arginine 13.2 mM) [nM] | apparent KD of K4 kissing-loop reporter ([1]; input ligand: none) [nM] | apparent KD of K4 kissing-loop reporter [1, 2] [nM] | apparent KD of K4 kissing-loop reporter [1, 4] [nM]
CCAUGCAGGUCGGCCGCCACUACACACAUGAGGAUCACCCAUGUAGUUACUGGGUGAAGUGGCAGUAGGACCGGGACCUGCACAC [Brourdmod20] | 84 | 289 | 446 | 601 | 335 |  |  |  |  | 
AAAUGAGGAUCACCCAUGUAACAACGGGAAGGAGCGCCAAACAAGGCAGGUAGGUCGCCCACAUGAGGAUCACCCAUGUGUUGGG [Exclusion Arginine A GF 28] | 89 | 137 | 105 | 166 | 177 |  |  |  |  | 
UGACAUUGCUGCGAUACCAGACAUGAGGAUCACCCAUGUACCAAGGUACCCGAAAGGAAUGUCCCUUGGCAGCGCAGCAAUGUCU [MAT - Exclusion Theophlline B - Mod of Eli - D18] | 10.6 |  | 11.6 |  | 9.73 |  |  |  |  | 
GAUGAACUAUUCGAUACCAGACCACAUGAGGAUCACCCAUGUGUGUUUCGUCCUUAGCCGGUCCCUUGGCAGCGAAUAGUUUAUC [#28 Exclusion-TheophyllineB] | 25.8 |  | 30.3 |  | 19.4 |  |  |  |  | 
CAUACUUGAUCCUAUGAGCCUAUUUGUGAUACCAGCAUCUAAAUUUGCCCUUGGCAGCACUAACAUGAGGAUCACCCAUGUUAUA [JR_Nu_ExcTheophyA_Sub028] | 23.7 |  | 42.5 |  | 37 |  |  |  |  | 
UUAUUUAACGGAAGGAGCGCGGAAUAAUAAGUGGGUAAACAUGAGGAUCACCCAUGUAAACCGCAGGUAGGUCGCCGAUAUUUAU [AstrosEXyARgB#3] | 66.2 | 79.3 | 88.9 | 98.1 | 74.7 |  |  |  |  | 
GGUUACUCUACGGCCGCCACUGUAAUGUAAAGAUACCUGUACAUGACAUGAGGAUCACCCAUGUACAGGACCGGGUAGUGUAACC [Tryptophan B 17] | 144 |  | 312 | 343 |  |  |  |  |  | 
AUGCUUGUCAGAAGGAGCGUCUUUAACAUGAGGAUCACCCAUGUAUCAUGGAAUUUGAUGAGACAGGUAGGUCGCUGAAUAGUAA [JR_SSArginiB_Sub021] | 30 | 29.8 | 42.7 | 34.5 | 25.7 |  |  |  |  | 
AGUCUAUGGAGAGAUACCAGUGAGAGCCAUAGACAUGAGGAUCACCCAUGUGACAUGGAUCACCCUUGGCAGCUCAACGAGCUCU [#20 Same State - Theophylline B] | 41 |  | 106 |  | 87.1 |  |  |  |  | 
CUUAUAUAUACGGCCGCCACUUACUCAUGAGGUAACAACAUGAGGAUCACCCAUGUUUGAGGAUCAAGGACCGGGUAUAUAUAAG [AstrosSSTry#18] | 23.2 |  | 35.9 | 33.8 |  |  |  |  |  | 
UGUAUGUGAUCUGAUACCAGUCCAACUGGUAAAGCAUGAGGAACACCCAUGCAAAAUUGGGACCCUUGGCAGCAGAUCGCAUACU | 169 | 247 | 255 | 34.6 | 278 |  |  |  |  | 
AUUGCGAGUGAGUCGUGUAACGAUUCAGAUACCAGGCAUUUCGUUGUCCCUUGGCAGCUGUCUUACAUGAGGAUCACCCAUGUUA [#29 Exclusion-TheophyllineA] | 23.8 |  | 54.8 |  | 56.3 |  |  |  |  | 
GAGAACUCUUACGAUACCAGCCGGAGUGAUGUUCCGUGCUUGGACGUAGUAACCCGCACCGGCCCUUGGCAGCGUGGAUCCUAUG [Biorar] |  |  |  |  |  | 86.1 | 78.3 | 82.3 | 79.3 | 74.4
UGACUGGACUGAAGGAGCGGGCGAGACAAAGUCUCGAACUCGUAGUGAUGUUAUGAAAUAACCCAGGUAGGUCGCAGUCUAGUCU |  |  |  |  |  | 1130 | 684 | 892 | 868 | 789
AAUGUACAGGGAAGGAGCGUAGUCCAGUGAUGUUGGAGUUAAAUACCAGUGAUGUUGGUUAUACAGGUAGGUCGCCCUAAAGUGC [Exclusion Arginine B Gf 4] |  |  |  |  |  | 87 | 65.3 | 80.9 | 84.3 | 76
UCGGCGGAGUGAUGUUCCUAUGUCCAAGAUACCAGUCUAUGAACGGACCCUUGGCAGCUUCCAUUAGGUUACUAUUUAGACUCAU [theeternabot_exclusion_KL_Theo_A_10] |  |  |  |  |  | 190 | 227 | 215 | 248 | 166
CUGACCAACAGCGAUACCAGCGUGGAGUGAUGUUCCGUGGAUCGGAGUGAUGUUCCGAAGCGCCCUUGGCAGCGCAGAAGCAGGA [Exclusion Theophylline B GF11] |  |  |  |  |  | 197 | 136 | 201 | 150 | 152
ACUGAGCAUGCGGCCGCCACUUCAGAACGUCGCCCAAAGGGCGACGCCUCCACAGUGAUGUUGUGGAGGACCGGGCAUGUUCAGA [Omei KL Tryp B Exc A v2] |  |  |  |  |  | 152 | 113 | 136 | 111 | 144
CCCGCGGCGGGAAACCGUCGCGGGAAGGAAGGAGCGGCGAAGAAGCCAGGUAGGUCGCCUAUUGACAGUGAUGUUGUUAUAUAGA [#11] |  |  |  |  |  | 226 | 263 | 160 | 292 | 179
